# Reference: patent publication US20220054630A1 (UNIVERSITY OF MARYLAND COLLEGE PARK, published 2022)
# Substitutions are numbered along the chain they refer to. In names and notes the source's numbering stands.
# T1: CD81 large extracellular loop (LEL) (UniProt P60033 113-201)
# T1 construct: domain: large extracellular loop (LEL); not shown: C-terminal twin Strep tag
# T1 sequence: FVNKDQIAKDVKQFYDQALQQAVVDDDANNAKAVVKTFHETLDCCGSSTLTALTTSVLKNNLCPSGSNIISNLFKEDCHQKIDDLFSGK
# B1: sE2 design Triple (ΔHVR1-H445P-Y632NS) (other)
# chain: KQNIQLINTNGSWHINSTALNCNESLNTGWLAGLFYQPKFNSSGCPERLASCRRLTDFAQGWGPISYANGSGLDERPYCWHYPPRPCGIVPAKSVCGPVYCFTPSPVVVGTTDRSGAPTYSWGANDTDVFVLNNTRPPLGNWFGCTWMNSTGFTKVCGAPPCVIGGVGNNTLLCPTDCFRKHPEATYSRCGSGPWITPRCMVDYPYRLWHYPCTINYTIFKVRMNVSGVEHRLEAACNWTRGERCDLEDRDRSE
# B2: sE2 design H445P (other)
# chain: ETHVTGGSAGRTTAGLVGLLTPGAKQNIQLINTNGSWHINSTALNCNESLNTGWLAGLFYQPKFNSSGCPERLASCRRLTDFAQGWGPISYANGSGLDERPYCWHYPPRPCGIVPAKSVCGPVYCFTPSPVVVGTTDRSGAPTYSWGANDTDVFVLNNTRPPLGNWFGCTWMNSTGFTKVCGAPPCVIGGVGNNTLLCPTDCFRKHPEATYSRCGSGPWITPRCMVDYPYRLWHYPCTINYTIFKVRMYVGGVEHRLEAACNWTRGERCDLEDRDRSE
# B3: wild-type soluble E2 (sE2), HCV isolate H77C, residues 384-661 (other)
# chain: B2 chain with P62H
# B4: sE2 design Y632NS (Y632N-G634S) (other)
# chain: B2 chain with P62H, Y249N, G251S
# Molecular target: T1, CD81 large extracellular loop (LEL)
# Experiment: BLI (Octet RED96), His6-tagged sE2 on Ni-NTA biosensors, CD81-LEL in solution
row,Binder,binding result
1,B1,binds
2,B2,binds
3,B3,binds
4,B4,binds
